# Laboratory results reported in US20210115146A1 (WUXI BIOLOGICS IRELAND, published 2021).
# Where “and” joins values, the source holds several entries; their conditions need not be identical. Equal entries are not always repeated.
# How the values were obtained:
# [1] = biological target: T1, human EGFR (cell surface) (human, UniProt P00533 25-1210); test: FACS binding to A431 cells (printed 'A432' in paragraph 253) after 0, 1, 4, 7 and 14 days in human serum at 37 C; lower panel
# T1 construct: whole, on cells; also called W562-CHO-K1.hPro1.E9 cells; A431 cells
# Experimental: Freshly collected human blood was incubated in polystyrene tubes without anticoagulant for 30 minutes at room temperature. The Serum was collected after centrifugation the blood at 4000 rpm for 10 minutes. Repeat the centrifugation until the serum was clarifying. Gently mix antibodies with serum and ensure the serum content >95%. The mix aliquots were incubated at 37° C. for 0 day, 1 day, 4 days, 7 days and 14 days, respectively. At the indicated time point the samples were quickly-frozen in liquid nitrogen and stored at −80° C. until analysis. The cell bindings of the serial dilutions of the antibody samples to A432 cells were analyzed by FACS. Four-parameter non-linear regression analysis was used to obtain EC₅₀ values for cell binding using GraphPad Prism 5 software (GraphPad Software, La Jolla, Calif.).
# [2] = biological target: T1, human EGFR (cell surface); test: cell-based or functional assay
# [3] = biological target: T2, mouse EGFR (cell surface) (mouse, UniProt Q01279 25-1210); test: FACS on cells expressing mouse EGFR
# T2 construct: whole, on cells; also called W562-CHO-K1.mProl.F3 cells
# Experimental: (§1) The binding of antibodies to cell surface EGFR was assessed by FACS with EGFR transfected cells and A431 cell line, which over expresses human EGFR. 1×10⁵ cells/well were plated in a 96-well plate and centrifuged at 210 g for 5 minutes at 4° C. After removing the supernatant, the cell pellets were re-suspended with serial dilutions of testing purified antibodies in 1% BSA-PBS and incubated for 1 hour at 4° C., followed by incubation with FITC conjugated goat anti-human IgG (Jackson ImmunoResearch) at 4° C. for 1 hour. Two times of washing with 200 μl/well 1% BSA-PBS were applied between each step. Finally, the cells were resuspended in 100 μl 1% BSA-PBS for flow cytometry analysis (Intellicyt).
# [4] = biological target: T1, human EGFR (cell surface); test: FACS on cells carrying human EGFR
# Experimental: as §1
# [5] = biological target: T3, human EGFR ECD protein (W562-hPro1.ECD.his) (human, UniProt P00533 25-645); test: SPR (ProteOn XPR36), antibody captured by anti-human IgG Fc, EGFR ECD.his as analyte
# T3 construct: extracellular domain; Made in HEK293 cells
# Experimental: Each antibody was captured on an anti-human IgG Fc antibody immobilized GLM sensor chip (Bio-Rad). W562-hPro1.ECD.his at different concentrations was injected over the sensor chip at a flow rate of 100 uL/min for an association phase of 240 s, followed by 1800 s dissociation. The chip was regenerated by 10 mM glycine (pH 1.5) after each binding cycle. The sensorgrams of blank surface and buffer channel were subtracted from the test sensorgrams. The experimental data was fitted by 1:1 binding model using Langmiur analysis. Molecular weight of 85 kDa was used to calculate the molar concentration of analyte.
# [6] = biological target: T4, Macaca fascicularis EGFR (cell surface) (Macaca fascicularis, UniProt A0A2K5WK39 25-1210); test: FACS on cells expressing monkey EGFR
# T4 construct: whole, on cells; also called monkey EGFR; cyno EGFR
# Experimental: as §1
# [7] = biological target: T1, human EGFR (cell surface); test: FACS affinity on transfected cells, quantitative beads
# Experimental: (§2) Human, cyno, mouse EGFR and human EGFRvIII transfected cells were transferred in to 96-well U-bottom plates (BD) at a density of 5×10⁴ cells/well, respectively. Testing antibodies were 1:3.16-fold serially diluted in 1% BSA-PBS and incubated with the cells at 4° C. for 1 hr. The secondary antibody, Alexa647 conjugated goat anti-human IgG Fc (Jackson Immunoresearch Lab), was added to resuspended cells and incubated at 4° C. in the dark for 1 hr. The cells were then washed once and resuspended in PBS with 1% BSA, and analyzed by flow cytometery (BD). Fluorescence intensity was converted to bound molecules/cell based on the quantitative beads (Quantum™ MESF Kits, Bangs Laboratories). KD was calculated using Graphpad Prism5.
# [8] = biological target: T4, Macaca fascicularis EGFR (cell surface); test: as above
# Experimental: as §2
# [9] = biological target: T5, human EGFRvIII (cell surface) (human, UniProt P00533 25-1210); test: as above
# T5 construct: whole, on cells; also called hEGFRIII; EGFR variant III
# Experimental: as §2
# [10] = biological target: T2, mouse EGFR (cell surface); test: as above
# Experimental: as §2
# [11] = biological target: T1, human EGFR (cell surface); test: FACS competition with EGF-biotin (50 ng/ml) on A431 cells
# Experimental: EGFR-expressing A431 cells were routinely maintained in DMEM containing 10% FBS, 10 mM HEPES and L-glutamine. 10⁵ cells per well were added to each well of a 96-well plate and centrifuged at 210 g for 5 minutes at 4° C. before the supernatant was removed. Serial dilutions of test antibodies were added to the pelleted cells and incubated for 1 hour at 4° C. […] MFI of the cells was measured by flow cytometry and analyzed by FlowJo.
binder,measurement,setting,value
"W5626-2C10-z5 (humanized VHH of W5626-2C10 further comprising a human Fc of IgG1 isotype) (Fc fusion, Bivalent humanized VHH linked with human IgG1 Fc region; not shown: human IgG1 Fc region from a modified pcDNA3.3 vector) AVQLVESGGGLVQPGGSLTLSCAASGRTFSSYAMGWFRQAPGKEREFVAADRWSGGNTRYADSVKGRFTISRDNAKNTLYLQMNSLRAEDTAVYYCAATYLSSDYEWGVPPKAYDYDYWGQGTLVTVSS",EC50 (read off the curve),[1],~0.8 nM
same,"EC50 of EGFR internalization (Fab-ZAP, viability of A431 cells)",[2],0.21 nM
same,"IC50 of inhibition of EGFR phosphorylation (pEGFR sandwich ELISA, A431 cells stimulated with EGF)",[2],10.4 nM and 22.6 nM
same,EC50,[3],1.06 nM
same,EC50,[4],0.99 nM
same,Kd,[5],0.162 nM
same,koff,[5],0.000105 s⁻¹
same,kon,[5],646000 M⁻¹ s⁻¹
same,EC50,[6],0.58 nM
same,Bmax,[7],920 pM
same,Kd,[7],1.4 nM
same,Bmax,[8],230 pM
same,Kd,[8],0.23 nM
same,Bmax,[9],590 pM
same,Kd,[9],0.32 nM
same,Bmax,[10],890 pM
same,Kd,[10],0.54 nM
same,IC50,[11],2.58 nM
